*1 amine or outer side, *2 acyl side, *3 side chain or, on linkers, in order; H or OH if unused. Side-chain parts run from the residue outwards. The star is where a group is joined. C18 diacid = O=C(O)CCCCCCCCCCCCCCCCC(=O)*; γGlu = O=C(O)[C@H](CCC(=O)[*:2])N[*:1]; Isovaleryl = CC(C)CC(=O)*; Ahx = NCCCCCC(=O)O
T1: human NPY2 receptor (human, UniProt P49146 1-381)
T1 construct: whole, on cells; also called hNPY2-R; hNPY2R
T1 sequence (looked up): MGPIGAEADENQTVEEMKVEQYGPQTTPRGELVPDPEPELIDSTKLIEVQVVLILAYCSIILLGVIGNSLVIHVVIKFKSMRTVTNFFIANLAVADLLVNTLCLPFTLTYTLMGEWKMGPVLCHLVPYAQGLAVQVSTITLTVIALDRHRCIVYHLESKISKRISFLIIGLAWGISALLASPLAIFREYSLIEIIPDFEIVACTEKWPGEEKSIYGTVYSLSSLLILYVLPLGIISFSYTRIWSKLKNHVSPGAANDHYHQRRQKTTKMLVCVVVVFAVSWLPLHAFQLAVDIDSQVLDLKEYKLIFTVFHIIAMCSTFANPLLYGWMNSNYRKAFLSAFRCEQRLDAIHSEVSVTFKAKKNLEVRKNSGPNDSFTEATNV


target: T1, human NPY2 receptor; assay: RLB: displacement of 125I-PYY(1-36) from hNPY2R membranes

Ki	Binder
2.07 nM	Isovaleryl-APAK([Ahx-γGlu-C18 diacid])PEEDATPEEAQRYYVSLRHYYNWLTRQRY-NH2 (SMILES CC(C)CC(=O)N[C@@H](C)C(=O)N1CCC[C@H]1C(=O)N[C@@H](C)C(=O)N[C@@H](CCCCNC(=O)CCCCCNC(=O)CC[C@H](NC(=O)CCCCCCCCCCCCCCCCC(=O)O)C(=O)O)C(=O)N1CCC[C@H]1C(=O)N[C@@H](CCC(=O)O)C(=O)N[C@@H](CCC(=O)O)C(=O)N[C@@H](CC(=O)O)C(=O)N[C@@H](C)C(=O)N[C@H](C(=O)N1CCC[C@H]1C(=O)N[C@@H](CCC(=O)O)C(=O)N[C@@H](CCC(=O)O)C(=O)N[C@@H](C)C(=O)N[C@@H](CCC(N)=O)C(=O)N[C@@H](CCCNC(=N)N)C(=O)N[C@@H](Cc1ccc(O)cc1)C(=O)N[C@@H](Cc1ccc(O)cc1)C(=O)N[C@H](C(=O)N[C@@H](CO)C(=O)N[C@@H](CC(C)C)C(=O)N[C@@H](CCCNC(=N)N)C(=O)N[C@@H](Cc1c[nH]cn1)C(=O)N[C@@H](Cc1ccc(O)cc1)C(=O)N[C@@H](Cc1ccc(O)cc1)C(=O)N[C@@H](CC(N)=O)C(=O)N[C@@H](Cc1c[nH]c2ccccc12)C(=O)N[C@@H](CC(C)C)C(=O)N[C@H](C(=O)N[C@@H](CCCNC(=N)N)C(=O)N[C@@H](CCC(N)=O)C(=O)N[C@@H](CCCNC(=N)N)C(=O)N[C@@H](Cc1ccc(O)cc1)C(N)=O)[C@@H](C)O)C(C)C)[C@@H](C)O) [Compound 57]
3.46 nM	Isovaleryl-APEK([Ahx-γGlu-C18 diacid])PEEDATPEEVQRYYVSLRHYYNWLTRQRY-NH2 (SMILES CC(C)CC(=O)N[C@@H](C)C(=O)N1CCC[C@H]1C(=O)N[C@@H](CCC(=O)O)C(=O)N[C@@H](CCCCNC(=O)CCCCCNC(=O)CC[C@H](NC(=O)CCCCCCCCCCCCCCCCC(=O)O)C(=O)O)C(=O)N1CCC[C@H]1C(=O)N[C@@H](CCC(=O)O)C(=O)N[C@@H](CCC(=O)O)C(=O)N[C@@H](CC(=O)O)C(=O)N[C@@H](C)C(=O)N[C@H](C(=O)N1CCC[C@H]1C(=O)N[C@@H](CCC(=O)O)C(=O)N[C@@H](CCC(=O)O)C(=O)N[C@H](C(=O)N[C@@H](CCC(N)=O)C(=O)N[C@@H](CCCNC(=N)N)C(=O)N[C@@H](Cc1ccc(O)cc1)C(=O)N[C@@H](Cc1ccc(O)cc1)C(=O)N[C@H](C(=O)N[C@@H](CO)C(=O)N[C@@H](CC(C)C)C(=O)N[C@@H](CCCNC(=N)N)C(=O)N[C@@H](Cc1c[nH]cn1)C(=O)N[C@@H](Cc1ccc(O)cc1)C(=O)N[C@@H](Cc1ccc(O)cc1)C(=O)N[C@@H](CC(N)=O)C(=O)N[C@@H](Cc1c[nH]c2ccccc12)C(=O)N[C@@H](CC(C)C)C(=O)N[C@H](C(=O)N[C@@H](CCCNC(=N)N)C(=O)N[C@@H](CCC(N)=O)C(=O)N[C@@H](CCCNC(=N)N)C(=O)N[C@@H](Cc1ccc(O)cc1)C(N)=O)[C@@H](C)O)C(C)C)C(C)C)[C@@H](C)O) [Compound 58]
1.93 nM	Isovaleryl-APAK([Ahx-γGlu-C18 diacid])PEEDASPEELQRYYVQLRHYYNWLTRQRY-NH2 (SMILES CC(C)CC(=O)N[C@@H](C)C(=O)N1CCC[C@H]1C(=O)N[C@@H](C)C(=O)N[C@@H](CCCCNC(=O)CCCCCNC(=O)CC[C@H](NC(=O)CCCCCCCCCCCCCCCCC(=O)O)C(=O)O)C(=O)N1CCC[C@H]1C(=O)N[C@@H](CCC(=O)O)C(=O)N[C@@H](CCC(=O)O)C(=O)N[C@@H](CC(=O)O)C(=O)N[C@@H](C)C(=O)N[C@@H](CO)C(=O)N1CCC[C@H]1C(=O)N[C@@H](CCC(=O)O)C(=O)N[C@@H](CCC(=O)O)C(=O)N[C@@H](CC(C)C)C(=O)N[C@@H](CCC(N)=O)C(=O)N[C@@H](CCCNC(=N)N)C(=O)N[C@@H](Cc1ccc(O)cc1)C(=O)N[C@@H](Cc1ccc(O)cc1)C(=O)N[C@H](C(=O)N[C@@H](CCC(N)=O)C(=O)N[C@@H](CC(C)C)C(=O)N[C@@H](CCCNC(=N)N)C(=O)N[C@@H](Cc1c[nH]cn1)C(=O)N[C@@H](Cc1ccc(O)cc1)C(=O)N[C@@H](Cc1ccc(O)cc1)C(=O)N[C@@H](CC(N)=O)C(=O)N[C@@H](Cc1c[nH]c2ccccc12)C(=O)N[C@@H](CC(C)C)C(=O)N[C@H](C(=O)N[C@@H](CCCNC(=N)N)C(=O)N[C@@H](CCC(N)=O)C(=O)N[C@@H](CCCNC(=N)N)C(=O)N[C@@H](Cc1ccc(O)cc1)C(N)=O)[C@@H](C)O)C(C)C) [Compound 59]

The next lines start with the binder.

Binder	Ki
Isovaleryl-APEK([Ahx-γGlu-C18 diacid])PEEDATPEELQRYYVLLRHYYNWLTRQRY-NH2 (SMILES CC(C)CC(=O)N[C@@H](C)C(=O)N1CCC[C@H]1C(=O)N[C@@H](CCC(=O)O)C(=O)N[C@@H](CCCCNC(=O)CCCCCNC(=O)CC[C@H](NC(=O)CCCCCCCCCCCCCCCCC(=O)O)C(=O)O)C(=O)N1CCC[C@H]1C(=O)N[C@@H](CCC(=O)O)C(=O)N[C@@H](CCC(=O)O)C(=O)N[C@@H](CC(=O)O)C(=O)N[C@@H](C)C(=O)N[C@H](C(=O)N1CCC[C@H]1C(=O)N[C@@H](CCC(=O)O)C(=O)N[C@@H](CCC(=O)O)C(=O)N[C@@H](CC(C)C)C(=O)N[C@@H](CCC(N)=O)C(=O)N[C@@H](CCCNC(=N)N)C(=O)N[C@@H](Cc1ccc(O)cc1)C(=O)N[C@@H](Cc1ccc(O)cc1)C(=O)N[C@H](C(=O)N[C@@H](CC(C)C)C(=O)N[C@@H](CC(C)C)C(=O)N[C@@H](CCCNC(=N)N)C(=O)N[C@@H](Cc1c[nH]cn1)C(=O)N[C@@H](Cc1ccc(O)cc1)C(=O)N[C@@H](Cc1ccc(O)cc1)C(=O)N[C@@H](CC(N)=O)C(=O)N[C@@H](Cc1c[nH]c2ccccc12)C(=O)N[C@@H](CC(C)C)C(=O)N[C@H](C(=O)N[C@@H](CCCNC(=N)N)C(=O)N[C@@H](CCC(N)=O)C(=O)N[C@@H](CCCNC(=N)N)C(=O)N[C@@H](Cc1ccc(O)cc1)C(N)=O)[C@@H](C)O)C(C)C)[C@@H](C)O) [Compound 49]	11.6 nM
Isovaleryl-APEK([Ahx-γGlu-C18 diacid])PEEDATPEELQRYYVQLRHYYNWLTRQRY-NH2 (SMILES CC(C)CC(=O)N[C@@H](C)C(=O)N1CCC[C@H]1C(=O)N[C@@H](CCC(=O)O)C(=O)N[C@@H](CCCCNC(=O)CCCCCNC(=O)CC[C@H](NC(=O)CCCCCCCCCCCCCCCCC(=O)O)C(=O)O)C(=O)N1CCC[C@H]1C(=O)N[C@@H](CCC(=O)O)C(=O)N[C@@H](CCC(=O)O)C(=O)N[C@@H](CC(=O)O)C(=O)N[C@@H](C)C(=O)N[C@H](C(=O)N1CCC[C@H]1C(=O)N[C@@H](CCC(=O)O)C(=O)N[C@@H](CCC(=O)O)C(=O)N[C@@H](CC(C)C)C(=O)N[C@@H](CCC(N)=O)C(=O)N[C@@H](CCCNC(=N)N)C(=O)N[C@@H](Cc1ccc(O)cc1)C(=O)N[C@@H](Cc1ccc(O)cc1)C(=O)N[C@H](C(=O)N[C@@H](CCC(N)=O)C(=O)N[C@@H](CC(C)C)C(=O)N[C@@H](CCCNC(=N)N)C(=O)N[C@@H](Cc1c[nH]cn1)C(=O)N[C@@H](Cc1ccc(O)cc1)C(=O)N[C@@H](Cc1ccc(O)cc1)C(=O)N[C@@H](CC(N)=O)C(=O)N[C@@H](Cc1c[nH]c2ccccc12)C(=O)N[C@@H](CC(C)C)C(=O)N[C@H](C(=O)N[C@@H](CCCNC(=N)N)C(=O)N[C@@H](CCC(N)=O)C(=O)N[C@@H](CCCNC(=N)N)C(=O)N[C@@H](Cc1ccc(O)cc1)C(N)=O)[C@@H](C)O)C(C)C)[C@@H](C)O) [Compound 51]	2.59 nM
Isovaleryl-APEK([Ahx-γGlu-C18 diacid])PEEDATPEEAQRYYVSLRHYYNWLTRQRY-NH2 (SMILES CC(C)CC(=O)N[C@@H](C)C(=O)N1CCC[C@H]1C(=O)N[C@@H](CCC(=O)O)C(=O)N[C@@H](CCCCNC(=O)CCCCCNC(=O)CC[C@H](NC(=O)CCCCCCCCCCCCCCCCC(=O)O)C(=O)O)C(=O)N1CCC[C@H]1C(=O)N[C@@H](CCC(=O)O)C(=O)N[C@@H](CCC(=O)O)C(=O)N[C@@H](CC(=O)O)C(=O)N[C@@H](C)C(=O)N[C@H](C(=O)N1CCC[C@H]1C(=O)N[C@@H](CCC(=O)O)C(=O)N[C@@H](CCC(=O)O)C(=O)N[C@@H](C)C(=O)N[C@@H](CCC(N)=O)C(=O)N[C@@H](CCCNC(=N)N)C(=O)N[C@@H](Cc1ccc(O)cc1)C(=O)N[C@@H](Cc1ccc(O)cc1)C(=O)N[C@H](C(=O)N[C@@H](CO)C(=O)N[C@@H](CC(C)C)C(=O)N[C@@H](CCCNC(=N)N)C(=O)N[C@@H](Cc1c[nH]cn1)C(=O)N[C@@H](Cc1ccc(O)cc1)C(=O)N[C@@H](Cc1ccc(O)cc1)C(=O)N[C@@H](CC(N)=O)C(=O)N[C@@H](Cc1c[nH]c2ccccc12)C(=O)N[C@@H](CC(C)C)C(=O)N[C@H](C(=O)N[C@@H](CCCNC(=N)N)C(=O)N[C@@H](CCC(N)=O)C(=O)N[C@@H](CCCNC(=N)N)C(=O)N[C@@H](Cc1ccc(O)cc1)C(N)=O)[C@@H](C)O)C(C)C)[C@@H](C)O) [Compound 54]	8.97 nM

Source: patent US20260015399A1 (Boehringer Ingelheim, published 2026)
